US20020115169A1

Biological target: HIV-1 Rev protein (recombinant, expressed in E. coli, refolded) (HIV-1)
Test: cell-based or functional assay

In the case of “nucleolar protein B23.1 (recombinant, produced in E. coli) (from UniProt P13084 1-292)”, the % inhibition of temperature-dependent Rev aggregation (turbidity at 360 nm, 20 minute time point) versus molar ratio of B23 to Rev (mol B23 per mol Rev) is reported as 1.
